Data as given in patent US20090238791A1 (INSTITUT NATIONAL DE LA SANTE ET DE LA RECHERCHE MEDICALE …, published 2009).
Blank lines part the entries; values can stand above or below the binder they belong to.

Experiments:
Recombinant human IL-15 [1] = target: T1, Recombinant human IL-15 (human, UniProt P40933 49-162); test: cell-based or functional assay
[2] = target: T2, IL-15Rβ/γ complex (intermediate affinity receptor), human (human, UniProt P14784 27-551; P31785 23-369); test: 125I-sIL-15Rα-sushi saturation binding to TF-1β cells in the presence of 1 nM rIL-15
T2 construct: whole, on cells; Found on Mo-7 cells, which express IL-15Rβ/γ but not IL-15Rα; also called IL-15Rbeta/gamma; IL-2Rβ/γ
Method: Labeling with [¹²⁵I]-iodine of human rIL-15, sIL-15Rα-sushi and RLI fusion protein, and subsequent binding experiments were performed as described previously (19). For internalization, cells were equilibrated at 4° C. with labeled sIL-15Rα-sushi or RLI, and the temperature switched to 37° C. At different time intervals, two samples were washed and centrifuged. One of the cell pellets was treated with glycine-HCl buffer 0.2 M, pH 2.5, whereas the other was treated with PBS pH 7.4 at 4° C. for 5 min. After centrifugation, total ligand binding was determined from the pellet of the cells treated with PBS, whereas the membrane bound and internalized fractions were determined respectively from the supernatant and pellet of cells treated with acid pH.
As further shown in FIG. 6D, the radiolabeled sIL-15Rα-sushi was efficiently internalized. Radiolabeled RLI fusion protein also bound to TF1β cells (FIG. 6E). […] Once bound, the RLI was also efficiently internalized (FIG. 6F).

Recombinant human IL-15 [3] = target: T1, Recombinant human IL-15; test: SPR, BIAcore 2000
Method: (§1) These experiments were performed with a BIACore 2000 biosensor (BIACore, Uppsala, Sweden). rIL-15 was covalently linked to CM5 sensor chips, and the binding of increasing concentrations of sIL-15Rα-IL-2, sIL-15Rα-sushi-IL-2 or sIL-15Rα-sushi was monitored. Analysis of sensograms was performed using BIAlogue kinetics evaluation software.

Recombinant human IL-15 [4] = target: T1, Recombinant human IL-15; test: Competition with 125I-rIL-15 (200 pM) binding to IL-15Rα on TF-1 cells
Method: The three soluble forms of IL-15Rα were tested for their ability to compete out the binding of radio-iodinated IL-15 to IL-15Rα expressed by the human cell line TF-1 which also expresses the IL-15Rγ chain, but not the IL-15Rβ chain (FIG. 1D).

Recombinant human IL-15 [5] = target: T1, Recombinant human IL-15; test: SPR, analysis of sensorgrams
Method: as §1

Recombinant human IL-15 [6] = target: T1, Recombinant human IL-15; test: SPR

T1 sequence (P40933 49-162 limits assumed): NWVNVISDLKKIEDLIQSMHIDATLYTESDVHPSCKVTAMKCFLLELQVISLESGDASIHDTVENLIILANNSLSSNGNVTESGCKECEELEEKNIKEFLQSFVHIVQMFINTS
T2 sequence (P14784 whole entry, chain 1 of 2): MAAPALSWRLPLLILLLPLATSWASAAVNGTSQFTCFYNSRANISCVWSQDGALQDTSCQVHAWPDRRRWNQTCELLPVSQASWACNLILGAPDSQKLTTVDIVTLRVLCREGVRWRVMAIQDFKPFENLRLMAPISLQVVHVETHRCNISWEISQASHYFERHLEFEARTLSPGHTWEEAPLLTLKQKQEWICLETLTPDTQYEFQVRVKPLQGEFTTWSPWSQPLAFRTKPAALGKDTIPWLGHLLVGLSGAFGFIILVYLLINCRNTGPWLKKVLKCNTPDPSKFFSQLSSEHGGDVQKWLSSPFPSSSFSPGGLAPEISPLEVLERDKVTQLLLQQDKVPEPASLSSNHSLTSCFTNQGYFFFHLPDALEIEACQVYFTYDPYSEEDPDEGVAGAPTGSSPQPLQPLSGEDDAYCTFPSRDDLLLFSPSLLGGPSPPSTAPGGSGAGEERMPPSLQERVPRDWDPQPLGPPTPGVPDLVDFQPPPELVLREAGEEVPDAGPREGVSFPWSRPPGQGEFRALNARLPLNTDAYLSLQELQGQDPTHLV
T2 sequence (P31785 whole entry, chain 2 of 2): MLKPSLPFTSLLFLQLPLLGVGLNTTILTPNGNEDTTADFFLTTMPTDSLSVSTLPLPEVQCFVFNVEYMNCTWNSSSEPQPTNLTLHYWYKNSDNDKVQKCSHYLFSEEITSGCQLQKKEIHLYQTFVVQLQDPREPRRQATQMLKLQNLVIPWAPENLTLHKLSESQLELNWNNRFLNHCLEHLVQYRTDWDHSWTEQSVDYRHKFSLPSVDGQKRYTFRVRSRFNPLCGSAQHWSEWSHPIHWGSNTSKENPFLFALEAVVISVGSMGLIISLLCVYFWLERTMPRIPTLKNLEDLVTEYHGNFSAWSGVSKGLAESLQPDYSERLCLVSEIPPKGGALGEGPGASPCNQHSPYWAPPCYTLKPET

IC50 of the potentiation of Mo-7 proliferation driven by a fixed concentration of rIL-15 (1 nM) (Recombinant human IL-15 [1]): 3.5 nM
Kd [2]: 3.5 nM
Kd (Recombinant human IL-15 [3]): 1.5 nM
koff (Recombinant human IL-15 [3]): 0.00038 s⁻¹
kon (Recombinant human IL-15 [3]): 250000 M⁻¹ s⁻¹
IC50 (Recombinant human IL-15 [4]): 1.3 nM
B1: sIL-15Rα-sushi (receptor)
chain: ITCPPPMSVEHADIWVKSYSLYSRERYICNSGFKRKAGTSSLTECVLNKATNVAHWTTPSLKCIRD
notes: also called soluble sushi domain; not shown: Vector-encoded tag of pQE30; The protein was trapped on Ni-NTA agarose

Kd (Recombinant human IL-15 [5]): 0.102 nM
fold increase in binding affinity compared to sIL-15Rα-Sushi-IL-2 (Recombinant human IL-15 [6]): 4 fold
fold lower affinity than the full length soluble IL-15Rα (Recombinant human IL-15 [6]): 3 fold
B2: sIL-15Rα-Sushi+ (receptor)
chain: ITCPPPMSVEHADIWVKSYSLYSRERYICNSGFKRKAGTSSLTECVLNKATNVAHWTTPSLKCIRDPALVHQRPAPP
notes: Expressed in SF9 insect cells; No sentence names it for Sushi+; also called Sushi15+; Flag-Factor Xa tagged sIL-15Rα-Sushi+; not shown: Flag-Factor Xa tag
